Laboratory results taken from patent publication US10233437B2, “Hypochlorite resistant cyanuric acid hydrolases and methods of use thereof” (REGENTS OF THE UNIVERSITY OF MINNESOTA, priority 2015, dated 2019).
Changes are numbered by the printed parent chain. Names may count otherwise.

B1: C46A: Moorella thermoacetica CAH with cysteine at residue 46 replaced with alanine (protein)
chain: MQKVEVFRIPTASPDDISGLATLIDSGKINPAEIVAILGKTEGNGAVNDFTRGFATQSLAMYLAEKLGISREEVVKKVAFIMSGGTEGVMTPHITVFVRKDVQEPAKPGKRLAVGVAFTRDFLPEELGRMEQVNEVARAVKEAMKDAQIDDPRDVHFVQIKCPLLTAERIEDAKRRGKDVVVNDTYKSMAYSRGASALGVALALGEISADKISNEAICHDWNLYSSVASTSAGVELLNDEIIVVGNSTNSASDLVIGHSVMKDAIDADAVRAALKDAGLKFDCCPPAEELAKIVNVLAKAEAASSGTVRGRRNTMLDDSDINHTRSARAVVNAVIASVVGDPMVYVSGGAEHQGPDGGGPIAVIARV
B2: C46S: Moorella thermoacetica CAH with cysteine at residue 46 replaced with serine (protein)
chain: B1 chain with A46S

Key:
[1] = Sensitivity of CAH to iodoacetamide; format: biochemical; details: 30 uM CAH, 20 mM iodoacetamide
Method: In addition to commonly used oxidants, the effect of a commonly used sulfhydryl reactive agent (iodoacetamide) was also tested on the activity of WT and variant CAH. It was reasoned that a sulfhydryl reactive compound might react with the cysteine sulfhydryl group of the wild-type protein to block substrate access to the active site much in the same way an oxidant could oxidize the cysteine sulfhydryl group and block active site access.
(§1) To determine sensitivity of WT, C46A and C46S CAH to various oxidants or sulfhydryl reagents, purified protein (30 μM) was pre-incubated with or without the potential inhibitor, 8.5 mM hydrogen peroxide, 50 μM potassium permanganate, 22 μM (1 ppm) ozone or 20 mM iodoacetamide. At appropriate time points, aliquots of the protein samples were diluted 100 fold into a solution of 140 ppm cyanuric acid and incubated for 10 minutes before the cyanuric acid concentration was measured with the melamine turbidity assay (explained in previous document). The results are plotted as the log of the percent of untreated-protein activity as a function of treatment time.

[2] = Cyanuric acid hydrolase activity (melamine turbidity assay); format: biochemical; details: 140 ppm cyanuric acid in phosphate buffered saline; 0.03 μM enzyme (0.12 μM for C46D, V, T)
Method: To determine CAH activity, 0.03 μM enzyme was incubated with a 140 ppm cyanuric acid (CYA) solution in phosphate buffered saline (138 mM NaCl, 3 mM KCl, 10 mM Na2HPO4, 2 mM KH2PO4). For the WT protein and the C46A and C46S variants, fractions were removed every 5 minutes to assay CYA concentration using a modified melamine turbidity assay (Downes et al. 1984). An equal volume of melamine solution (2.5 mg/mL in water) was added to cyanuric acid samples and mixed thoroughly. The absorbance at 600 nm was read 2 minutes after mixing. For the severely impaired CAH proteins (C46D, V and T), 0.12 μM protein was used and fractions were removed every hour for CYA measurement. Specific activity (nmol min^−1 mg^−1) was calculated as the average of triplicate data at two time points.

[3] = Resistance of CAH to mercury (II) salt; format: biochemical; details: 48 uM enzyme, 1.6 mM phenyl mercuric acetate, assayed after one minute
Method: The effect of a common heavy metal, mercury, on the activity of WT and variant CAH was also tested. […] Specifically, mercury (II) salts were used to test resistance, which are known to be particularly damaging to proteins. The WT or C46A enzymes (48 uM) were incubated with 1.6 mM phenyl mercuric acetate; the WT CAH enzyme retained 1% activity (+/−13% error) (so it was 99% inactivated) while the C46A mutant enzyme retained 89% activity (+1-11%) (so it was completely resistant within experimental error) when assayed after one minute.

[4] = Bleach sensitivity of CAH; format: biochemical; details: 30 μM protein pre-incubated with 1 mM bleach
Method: To determine bleach sensitivity of WT, C46A and C46S CAH, purified protein (30 μM) was pre-incubated with or without 1 mM bleach. At appropriate time points, aliquots of the protein samples were diluted 100 fold into a solution of 140 ppm cyanuric acid and incubated for 10 minutes before the cyanuric acid concentration was measured with the melamine turbidity assay. The results are plotted as the log of the percent of untreated-protein activity as a function of treatment time.

[5] = Sensitivity of CAH to hydrogen peroxide; format: biochemical; details: 30 μM CAH, 8.5 mM H2O2
Method: as §1

[6] = Circular dichroism thermal melting; format: physicochemical; details: CD at 220 nm, 25 μM protein, 55 to 90° C.
Method: The circular dichroism (CD) measurements were performed on a Jasco J-815 spectrometer with 25 μM protein in 50 mM M Tris-HCl buffer, pH 7.2 in a 1 mm path length cell. For thermal melting, the changes in CD spectra at of the proteins were sampled at 220 nm every 1° C. during continuous heating the solutions from 55 to 90° C. at 1 degree per minute. Data were normalized to the initial reading at 55 C.

[7] = Inactivation of CAH by Michael addition; format: biochemical; details: 30 uM enzyme, 350 uM N-ethylmaleimide
Method: Inactivation of the WT and variant CAH from a Michael addition reaction was also investigated using N-ethylmaleimide. Specifically, the WT or C46A enzymes (30 uM) were incubated with 350 uM N-ethylmaleimide.

Molecule	Effect of iodoacetamide on activity [1]	Specific activity [2] [µmol/min/mg]	Activity retained [3] [%]	Resistance to inactivation by bleach [4]	Decrease of sensitivity to hydrogen peroxide versus wild-type [5]	Thermal melting curve compared to WT [6]	Protection from inactivation by N-ethylmaleimide [7]
B1	not affected	10.03	89	largely resistant to inactivation by bleach	over four-fold	very closely resemble the WT curve	completely protected
B2	–	6.972	–	largely resistant to inactivation by bleach	over four-fold	very closely resemble the WT curve	–
